The values below come from the Immune Epitope Database (IEDB).

In experiment [1] the target is HLA-A*01:01. In words: IEDB peptide-MHC binding, purified MHC/direct/fluorescence; filed as Kd, often an IC50 or EC50 that approximates it; ≥ and ≤ were set here for values at or beyond the usual limits of such assays.
The target of experiment [2] is HLA-A*02:03. Described as above.
The target of experiment [3] is HLA-A*02:12. Described as above.
The target in experiment [4] is HLA-A*02:16. Described as above.
Experiment [5] addresses HLA-A*02:19. The experiment is described as above.
Experiment [6] has as its target HLA-A*03:01. Described as above.
Experiment [7] addresses HLA-A*23:01. The experiment is described as above.
For experiment [8], the target named is HLA-A*24:03. The description is as above.
Experiment [9] has as its target HLA-A*68:02. The experiment is described as above.
The target of experiment [10] is HLA-A*02:01. Kind of experiment: IEDB peptide-MHC binding, purified MHC/competitive/fluorescence; filed as Kd, often an IC50 or EC50 that approximates it; ≥ and ≤ were set here for values at or beyond the usual limits of such assays.
In experiment [11] the target is HLA-A*26:01. Described as above.
Experiment [12] addresses HLA-A*69:01. The experiment is described as above.
Experiment [13] has as its target HLA-B*15:01. The description is as above.
Experiment [14] has as its target HLA-B*15:17. Described as above.
Experiment [15] has as its target HLA-B*18:01. The experiment is described as above.
The target of experiment [16] is HLA-B*27:03. The description is as above.
For experiment [17], the target named is HLA-B*39:01. The description is as above.
In experiment [18] the target is HLA-B*46:01. The description is as above.
For experiment [19], the target named is HLA-B*51:01. Described as above.
Experiment [20] concerns the target HLA-B*57:01. The description is as above.
For experiment [21], the target named is HLA-B*15:01. In words: IEDB peptide-MHC binding, purified MHC/competitive/fluorescence; ≥ and ≤ were set here for values at or beyond the usual limits of such assays. The note with it: source organism: Sudan ebolavirus.
The target of experiment [22] is HLA-A*02:11. In words: IEDB peptide-MHC binding, purified MHC/direct/fluorescence; filed as Kd, often an IC50 or EC50 that approximates it; ≥ and ≤ were set here for values at or beyond the usual limits of such assays.
Experiment [23] concerns the target HLA-B*15:01. Described as above.
The target in experiment [24] is HLA-A*02:01. The description is as above. Conditions: source organism: Isla Vista hantavirus.
The target in experiment [25] is HLA-A*29:02. The description is as above.
Experiment [26] deals with HLA-A*31:01. Described as above. Conditions: source organism: Isla Vista hantavirus.
Experiment [27] addresses HLA-B*18:01. The experiment is described as above. The note with it: source organism: Isla Vista hantavirus.
Experiment [28] concerns the target HLA-B*27:05. Described as above. The note with it: source organism: Isla Vista hantavirus.
For experiment [29], the target named is HLA-B*39:01. Described as above. Conditions: source organism: Isla Vista hantavirus.
In experiment [30] the target is HLA-B*44:02. Described as above. The note with it: source organism: Isla Vista hantavirus.
Experiment [31] addresses HLA-B*46:01. Described as above. Conditions: source organism: Isla Vista hantavirus.
The target of experiment [32] is HLA-B*48:01. The description is as above. The note with it: source organism: Isla Vista hantavirus.
Experiment [33] deals with HLA-B*57:01. The description is as above. The note with it: source organism: Isla Vista hantavirus.
Experiment [34] deals with HLA-A*03:01. In words: IEDB peptide-MHC binding, purified MHC/competitive/fluorescence; filed as Kd, often an IC50 or EC50 that approximates it; ≥ and ≤ were set here for values at or beyond the usual limits of such assays. Conditions: source organism: Orthohantavirus andesense.
The target of experiment [35] is HLA-A*11:01. In words: IEDB peptide-MHC binding, purified MHC/direct/fluorescence; filed as Kd, often an IC50 or EC50 that approximates it; ≥ and ≤ were set here for values at or beyond the usual limits of such assays. The note with it: source organism: Rickettsia sibirica 246.
[36] abbreviates: source organism: Influenza A virus H3N2.
[37] abbreviates: source organism: Influenza A virus (A/Memphis/1/1978(H1N1)).
The mark [38] stands for this setting: source organism: Reston ebolavirus.
Setting [39] is: source organism: Isla Vista hantavirus.
Where [40] appears, read: source organism: Orthohantavirus tulaense.
Setting [41] is: source organism: Orthohantavirus puumalaense.
The mark [42] stands for this setting: source organism: Orthohantavirus andesense.
Setting [43] is: source organism: Rickettsia sibirica 246.

As usually defined, the Kd is a measure of binding affinity in units of concentration. Take AVDADDSHF: the dissociation constant Kd in experiment [1] (source organism: Influenza A virus (A/New York/140/1999(H3N2))), in experiment [2] (setting [36]), in experiment [3] (setting [36]), in experiment [4] (setting [36]), in experiment [5] (setting [36]) and in experiment [6] (setting [36]) was at least 20 µM throughout. For the same sequence, the Kd in [7] (setting [36]), in experiment [8] (setting [36]), in [9] (setting [36]), in experiment [10] (setting [37]), in experiment [11] (setting [37]) and in [12] (setting [37]) was at least 20 µM each time. Besides, the Kd in experiment [13] (setting [37]), in [14] (setting [37]), in experiment [15] (setting [37]), in experiment [16] (setting [37]), in experiment [17] (setting [37]) and in [18] (setting [37]) was at least 20 µM in each case. For the same sequence, the dissociation constant Kd in [19] (setting [37]) and in experiment [20] (setting [37]) was at least 20 µM each time.
The IC50 is the concentration at which inhibition is half-maximal. A high value points to a need for much substance. With GVPPKVVSY, the IC50 in [21] was 57.8 µM. For the same sequence, the Kd in experiment [2] (setting [38]), in [22] (setting [38]), in [3] (setting [38]), in experiment [4] (setting [38]), in experiment [5] (setting [38]) and in experiment [6] (setting [38]) was at least 20 µM in each case. Also, the Kd in experiment [7] (setting [38]) was at least 20 µM; in experiment [8] (setting [38]), at least 20 µM; in experiment [9] (setting [38]) it was at least 20 µM; in [23] (source organism: Reston ebolavirus - Reston), 2.56 µM; in experiment [10] (setting [38]) it was at least 20 µM; in experiment [11] (setting [38]), at least 20 µM. For the same sequence, the dissociation constant (Kd) in experiment [12] (setting [38]), in [15] (setting [38]), in experiment [16] (setting [38]), in experiment [17] (setting [38]), in experiment [18] (setting [38]) and in [19] (setting [38]) was at least 20 µM throughout. In experiment [20] (setting [38]), this sequence showed a dissociation constant Kd of at least 20 µM.
For the sequence SSLRYGNVL, the Kd in experiment [1] (setting [39]), in [24], in experiment [22] (setting [40]), in experiment [3] (setting [40]), in experiment [6] (setting [39]) and in experiment [8] (setting [40]) was at least 20 µM in each case. Besides, the Kd in experiment [25] (setting [39]), in experiment [26], in experiment [9] (setting [40]), in experiment [23] (setting [39]), in experiment [27] and in [28] was at least 20 µM throughout. In addition, the Kd in experiment [29] is 4 µM; in experiment [30], at least 20 µM; in [31], at least 20 µM; in experiment [32] it was at least 20 µM; in experiment [33] it was at least 20 µM; in [11] (setting [41]), at least 20 µM. Besides, the Kd in experiment [12] (setting [41]), in [16] (setting [41]) and in experiment [19] (setting [41]) was at least 20 µM each time.
Take STGKSIKFK: the Kd in experiment [2] (setting [42]), in experiment [22] (setting [42]), in experiment [3] (setting [42]), in experiment [4] (setting [42]), in experiment [5] (setting [42]) and in experiment [8] (setting [42]) was at least 20 µM each time. Moreover, the Kd in [25] (setting [42]) is at least 20 µM; in experiment [9] (setting [42]) it was at least 20 µM; in experiment [10] (setting [42]), at least 20 µM; in [34], 0.0147 µM; in [11] (setting [42]) it was at least 20 µM; in experiment [12] (setting [42]), at least 20 µM. The Kd in experiment [13] (setting [42]), in experiment [15] (setting [42]), in experiment [16] (setting [42]), in [17] (setting [42]), in [18] (setting [42]) and in experiment [19] (setting [42]) was at least 20 µM in each case. This sequence also came in with a Kd in [20] (setting [42]) of at least 20 µM.
With SVANIDRIK, the Kd in [2] (setting [43]), in experiment [22] (setting [43]), in [3] (setting [43]), in [4] (setting [43]), in experiment [5] (setting [43]) and in experiment [6] (setting [43]) was at least 20 µM each time. The dissociation constant (Kd) in experiment [35] is 0.006 µM; in [7] (setting [43]), at least 20 µM; in experiment [8] (setting [43]), at least 20 µM; in [9] (setting [43]), at least 20 µM; in experiment [10] (setting [43]), at least 20 µM; in experiment [11] (setting [43]), at least 20 µM. Besides, the Kd in experiment [12] (setting [43]), in experiment [14] (setting [43]), in [15] (setting [43]), in experiment [16] (setting [43]), in experiment [17] (setting [43]) and in experiment [18] (setting [43]) was at least 20 µM throughout. Further, the Kd in experiment [19] (setting [43]) and in [20] (setting [43]) was at least 20 µM throughout.
